Tested on: T1, C=C(OP(=O)(O)O)C(=O)O
T1 construct: full length, 622 residues, N-terminal His6-SUMO tag cleaved off with no additional amino acids; codon-optimised gene in pESUMO-Star; E. coli BL21(DE3); EC 4.1.1.32
Experiment: purified protein
Assay type: biochemical, Polaromonas naphthalenivorans
Details: 25 °C, pH 7.5, 1 mM GDP, 50 mM KHCO3, 4 mM MgCl2, 100 μM MnCl2, PEP carboxylation direction

## PnPEPCK (Polaromonas naphthalenivorans CJ2)
  Km: 2500 ± 650 µM
  kcat: 23 ± 1.4 s⁻¹
  kcat/Km: 9200 M⁻¹ s⁻¹
